From PMC7864924, “Structures of active-state orexin receptor 2 rationalize peptide and small-molecule agonist recognition and receptor activation” (Nature Communications, 2021)
Substitutions are numbered along the chain they refer to.

T1: Engineered human orexin receptor 2 (OX2R) truncated after R389, ICL3 residues V261-A291 deleted, with an … (human, UniProt O43614 1-389, residues V261–A291 deleted, biotin on the Avi-tag (BirA biotin-protein ligase))
T1 construct: Orexin receptor type 2 (OX2R), human, truncated after residue R389, part of ICL3 (residues V261-A291) deleted; M1 is said to be present in the construct; Detergent-solubilised receptor (DDM/CHS); The PDB entries hold the construct without the Avi-tag; also called engineered OX2R; orexin receptor type 2; source: biotinylated with BirA; not shown: Avi-tag, N-terminal, kept
T1 sequence (looked up): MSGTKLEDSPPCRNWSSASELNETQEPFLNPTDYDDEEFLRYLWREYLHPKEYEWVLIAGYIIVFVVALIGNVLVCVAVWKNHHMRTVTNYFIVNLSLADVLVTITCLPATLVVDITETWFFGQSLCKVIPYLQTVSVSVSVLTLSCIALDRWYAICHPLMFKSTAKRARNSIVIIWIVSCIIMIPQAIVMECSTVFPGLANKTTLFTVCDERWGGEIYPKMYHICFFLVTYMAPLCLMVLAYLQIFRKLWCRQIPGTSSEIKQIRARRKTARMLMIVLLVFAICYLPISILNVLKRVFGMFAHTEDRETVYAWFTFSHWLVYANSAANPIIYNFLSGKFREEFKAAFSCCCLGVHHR

T2: wildtype OX2R (Homo sapiens, UniProt O43614)
T2 sequence (O43614 1-444): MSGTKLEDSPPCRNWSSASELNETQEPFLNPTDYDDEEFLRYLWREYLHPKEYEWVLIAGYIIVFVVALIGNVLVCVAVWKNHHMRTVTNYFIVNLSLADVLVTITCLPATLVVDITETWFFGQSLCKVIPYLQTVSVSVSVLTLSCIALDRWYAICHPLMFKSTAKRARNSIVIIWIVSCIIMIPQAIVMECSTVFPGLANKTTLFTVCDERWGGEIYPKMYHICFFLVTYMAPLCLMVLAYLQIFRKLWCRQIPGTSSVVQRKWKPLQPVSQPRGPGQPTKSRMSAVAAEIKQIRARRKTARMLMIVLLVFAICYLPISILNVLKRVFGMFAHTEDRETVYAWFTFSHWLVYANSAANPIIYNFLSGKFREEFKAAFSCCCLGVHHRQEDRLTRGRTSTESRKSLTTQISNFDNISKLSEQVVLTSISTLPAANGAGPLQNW

B1: synthetic nanobody Sb51 (VHH)
VHH: QVQLVESGGGLVQAGGSLRLSCAASGFPVGRVMYWYRQAPGKEREWVAAISSHGDMTAYADSVKGRFTISRDNAKNTVYLQMNSLKPEDTAVYYCEVYVGYFYHGQGTQVTVS
notes: in the coordinates deposited here (complex with compound 1); Supplementary Data 1 lists the hits from which Sb51 was chosen; source: E. coli C41(DE3) periplasm, MBP fusion, purified (NiNTA, TEV cleavage, NiNTA, cation exchange); not shown: His10, N-terminal, cleaved
B2: Synthetic nanobody clone 56 (VHH)
VHH: QVQLVESGGGLVQAGGSLRLSCAASGFPVVSYNMKWYRQAPGKEREWVAAIYSFGSLGSWTHYADSVKGRFTISRDNAKNTVYLQMNSLKPEDTAVYYCHVYVGATYYGQGTQVTVS
notes: synthetic nanobody selected from the libraries of Zimmermann and coworkers by ribosome display and phage display; Host, tags and purification are told only for Sb51 (clone 51); also called Clone No. 56
B3: Synthetic nanobody clone 13 (VHH)
VHH: QVQLVESGGGLVQAGGSLRLSCAASGFPVNAREMYWYRQAPGKEREWVAAIVSKGSHTEYADSVKGRFTISRDNAKNTVYLQMNSLKPEDTAVYYCNVKDFGWWAVYYDYWGQGTQVTVS
notes: synthetic nanobody selected from the libraries of Zimmermann and coworkers by ribosome display and phage display; Host, tags and purification are told only for Sb51 (clone 51); also called Clone No. 13
B4: Synthetic nanobody clone 15 (VHH)
VHH: B3 VHH with N30K, A31Q, Y35A, V52W, S56A, E59V, A105N, V106R, Y107Q
notes: synthetic nanobody selected from the libraries of Zimmermann and coworkers by ribosome display and phage display; Host, tags and purification are told only for Sb51 (clone 51); also called Clone No. 15
B5: Synthetic nanobody clone 7 (VHH)
VHH: B3 VHH with N30L, A31R, R32Q, Y35F, V52W, H57T, F101Y, A105N, V106N, Y107W
notes: synthetic nanobody selected from the libraries of Zimmermann and coworkers by ribosome display and phage display; Host, tags and purification are told only for Sb51 (clone 51: E. coli C41(DE3), MBP fusion cleaved by TEV); also called Clone No. 7
B6: Synthetic nanobody clone 45 (VHH)
VHH: QVQLVESGGGLVQAGGSLRLSCAASGFPVYTYTMYWYRQAPGKEREWVAAITSEGISTAYADSVKGRFTISRDNAKNTVYLQMNSLKPEDTAVYYCEVYVGYFYHGQGTQVTVS
notes: synthetic nanobody selected from the libraries of Zimmermann and coworkers by ribosome display and phage display; Host, tags and purification are told only for Sb51 (clone 51); also called Clone No. 45
B7: Synthetic nanobody clone 44 (VHH)
VHH: B6 VHH with Y30D, T52N, E54N, I56H, S57H, Y102W, F103W, H105Y
notes: synthetic nanobody selected from the libraries of Zimmermann and coworkers by ribosome display and phage display; Host, tags and purification are told only for Sb51 (clone 51); also called Clone No. 44
B8: Synthetic nanobody clone 55 (VHH)
VHH: B6 VHH with Y30Q, T31S, Y32H, T52N, E54T, I56Q, S57G
notes: synthetic nanobody selected from the libraries of Zimmermann and coworkers by ribosome display and phage display; Host, tags and purification are told only for Sb51 (clone 51); also called Clone No. 55
B9: Synthetic nanobody clone 46 (VHH)
VHH: B6 VHH with Y30D, T31A, T33V, T52A, E54Q, I56H, S57P, Q110R
notes: synthetic nanobody selected from the libraries of Zimmermann and coworkers by ribosome display and phage display; Host, tags and purification are told only for Sb51 (clone 51); also called Clone No. 46

The molecules below were run against T3, engineered OX2R carrying an additional amino-terminal Avi-tag, biotinylated (Homo sapiens, UniProt O43614, residues V261–A291 deleted, biotin on the Avi-tag (BirA biotin-protein ligase)) (assay: grating-coupled interferometry; WAVE system (Creoptix); agonist-bound OX2R immobilised via the biotinylated Avi-tag on a neutravidin-coated WAVEchip 4PCP). Details: both partners purified.
T3 construct: orexin receptor type 2, human; as m1: truncated after residue R389, part of ICL3 (V261–A291) deleted; source: Expi293 cells, transiently transfected, purified in the presence of 50 µM small-molecule agonist, biotinylated with BirA; not shown: Avi-tag, N-terminal, kept
B1 gave a Kd of about 0.6 nM.

Each molecule was assayed against T1, Engineered human orexin receptor 2 … (assay: grating-coupled interferometry; WAVE system (Creoptix); agonist-bound OX2R immobilised via the biotinylated Avi-tag on a neutravidin-coated WAVEchip 4PCP; nanobody as analyte). Details: both partners purified.
B2 showed a Kd of 0.5 nM. With B3 the Kd was 12 nM. For B4, the Kd was 300 nM. B5 showed a Kd of 11 nM. B6 was tested, and the Kd was 11 nM. B7 gave a Kd of 7.7 nM. Molecule B8 has a Kd of 7.3 nM. With B9 the Kd was 4.2 nM.

What follows are molecules tested against T2, wildtype OX2R (assay: Saturation binding of 125I-OxA to wildtype OX2R). Details: CHO cell membranes, wild-type OX2R, room temperature, 6 h, pH 7.4; mean ± s.e.m., n = 3.
For “125I-OxA: radioligand, 125I-labelled OxA (PerkinElmer) (QPLPDCCRQKTCSCRLYELLHGAGNHAAGILTL)”, the “Dissociation constant, pKD” value was 9.12 ± 0.05.
